Assay results from patent US20150038408A1 (University of Washington, published 2015).
Like-named read-outs stand apart in the source and are kept apart here.

Columns and labels:
[1] = molecular target: T1, A/South Carolina/1/1918 (H1N1) hemagglutinin ectodomain (Influenza A virus A/South …)
[2] = molecular target: T1, A/South Carolina/1/1918 (H1N1) …; remark: listed apart in the source
[3] = molecular target: T1, A/South Carolina/1/1918 (H1N1) …; remark: listed apart in the source
[4] = molecular target: T1, A/South Carolina/1/1918 (H1N1) …; remark: listed apart in the source

Row | Binder | Kd [1] [nM] | Kd [2] [nM] | fold increase in binding affinity against HB36 [3] [fold] | Kd [4] [nM]
1 | HB80.1 (Met26Thr, Asn36Lys) (designed binder) MASTRGSGRPWDFSENLAFELALAFTNKDTPDRWAKVAQYVSGRTPEEVKKHYEILVEDIKYIESGKVPFPNYRTTGGNMKTDEKRFRNLKIRLE | 7.5 | 7.5 | – | –
2 | HB36.1 (Asp47Ser) (designed binder) MSNAMDGQQLNRLLLEWIGAWDPFGLGKDAYDVEAEAVLQAVYETESAFDLAMRIMWIYAFAFNRPIPFPHAQKLARRLLELKQAASSPLPLE | – | 5 | ~40 | 2 to 5
